Test results reported in patent US20190016825A1 (JIANGSU HENGRUI MEDICINE, published 2019).
Each block holds one binder with its values, some of them ahead of it.

Experiments:
[1] = molecular target: T1, PCSK9-D374Y-BP15-His6 (human, UniProt Q8NBP7 31-692, biotin on the BP15 biotin receiving peptide); experiment: ELISA, bio-PCSK9-Y captured on streptavidin plate
T1 construct: also called PCSK9-Y; mutant PCSK9
Procedure: The binding ability of anti-PCSK9 antibodies of the present invention to PCSK9-Y was detected by measuring the amount of antibodies binding to PCSK9-Y (mutant PCSK9, SEQ ID NO: 6) fixed on the ELISA plate.
Streptavidin (sigma, CAT#54762) was diluted to 2 μg/ml with PBS and coated into 96-well ELISA plate at 4° C. overnight. The plate was washed and then blocked with Tris buffer (including 0.9 mM CaCl₂, 0.05% Tween 20 and 5% skim milk) at 37° C. for 2 hours. Then the plate was washed again and 100 μl/well of the biotin-labeled PCSK9-Y, produced in-house, (bio-PCSK9-Y, diluted with Tris buffer containing 0.9 mM CaCl₂, 0.05% Tween 20 and 1% skim milk) was added and incubated at 37° C. for 1 hour. After the wash step, different concentrations of diluted PCSK9 antibody samples were added to the plate and incubated at 37° C. for 1 hour. Then the plate was washed again and HRP-goat-anti-human (H+L) antibody (Jackson ImmunoResearch, CAT#109-035-088) was added and incubated at 37° C. for 1 hour. Then the plate was washed again and tetramethylbenzidine solution was added for development. Finally, the stop solution was added and the OD450 value was measured on the Microplate reader, and then EC50 was calculated.
The results of ELISA test for the binding ability of chimeric antibodies and back-mutated antibodies of the present invention to mutant PCSK9 are shown in table 6.

[2] = molecular target: T2, PCSK9-BP15-His6 (human, UniProt Q8NBP7 31-692, biotin on the BP15 biotin receiving peptide); experiment: ELISA, bio-WT-PCSK9 captured on streptavidin plate
T2 construct: It holds a signal peptide (underlined in print); also called WT PCSK9; bio-WT-PCSK9
Procedure: The binding ability of anti-PCSK9 antibodies of the present invention to PCSK9 was detected by measuring the amount of antibodies binding to wild-type PCSK9 protein (WT PCSK9, SEQ ID NO: 5) fixed on the ELISA plate.
Streptavidin (sigma, CAT#S4762) was diluted to 2 μg/ml with PBS and coated into 96-well ELISA plate, at 4° C. overnight. The plate was washed and then blocked with Tris buffer (including 0.9 mM CaCl2, 0.05% Tween 20 and 5% skim milk) at 37° C. for 2 hours. Then the plate was washed again and 100 μl/well of the biotin-labeled PCSK9, produced in-house, (bio-WT-PCSK9, diluted with Tris buffer containing 0.9 mM CaCl2, 0.05% Tween 20 and 1% skim milk), was added and incubated at 37° C. for 1 hour. After the wash step, different concentrations of diluted PCSK9 antibody samples was added to the plate and incubated at 37° C. for 1 hour. Then the plate was washed again and HRP-goat-anti-human (H+L) antibody (Jackson ImmunoResearch, CAT#109-035-088) was added and incubated at 37° C. for 1 hour. Then the plate was washed again and tetramethylbenzidine solution was added for development. Finally, the stop solution was added and the OD450 value was measured on the Microplate reader, and then EC50 was calculated.

[3] = molecular target: T1, PCSK9-D374Y-BP15-His6; experiment: blocking ELISA, LDLR-FC (SEQ ID NO: 8) coated, bio-PCSK9-Y plus antibody
Procedure: The blocking abilities of anti-PCSK9 antibodies to the binding of LDLR-FC (SEQ ID NO: 8) to PCSK9-Y (mutant PCSK9, SEQ ID NO: 6) were detected by measuring the amount of PCSK9-Y binding to LDLR in the presence of the antibodies.
LDLR-FC was diluted to 2 μg/ml with phosphate buffer and coated in the 96-well ELISA plate (Costar, CAT#3590), then incubated at 4° C. overnight. The plate was washed and then blocked with Tris buffer (including 0.9 mM CaCl₂, 0.05% Tween 20 and 5% skim milk) at 37° C. for 2 hours. Then the plate was washed again and 100 μl/well of the mixture of biotin-labeled PCSK9-Y (bio-PCSK9-Y, diluted to final concentration of […] with Tris buffer containing 0.9 mM CaCl₂, 0.05% Tween 20 and 1% skim milk) and antibody samples (diluted with Tris buffer containing 0.9 mM CaCl₂, 0.05% Tween 20 and 1% skim milk) were added and incubated at 37° C. for 1 hour. Then the plate was washed again and horseradish peroxidase-streptavidin (sigma, CAT#S2438) was added and incubated at 37° C. for 1 hour. Then the plate was washed and tetramethylbenzidine solution was added for development. Finally, the stop solution was added and the OD450 value was measured on the Microplate reader, then IC50 was calculated.
The results of blocking test for the blocking effects of the chimeric antibodies and back-mutated antibodies of the present invention on the binding of LDLR-FC/PCSK9-Y are shown in table 7.

[4] = molecular target: T2, PCSK9-BP15-His6; experiment: blocking ELISA, LDLR-FC (SEQ ID NO: 8) coated, bio-WT-PCSK9 plus antibody
Procedure: The blocking abilities of PCSK9 antibodies of the present invention to the binding of LDLR-FC (produced in-house, sequence is shown in SEQ ID NO: 8) to PCSK9 (SEQ ID NO: 5) were detected by measuring the amount of PCSK9 binding to LDLR in the presence of the antibodies.
LDLR-FC was diluted to 5 μg/ml with phosphate buffer and coated in the 96-well ELISA plate, then incubated at 4° C. overnight. The plate was washed and then blocked with Tris buffer (including 0.9 mM CaCl₂, 0.05% Tween 20 and 5% skim milk) at 37° C. for 2 hours. Then the plate was washed again and 100 μl/well of the mixture of biotin-labeled PCSK9 (bio-WT-PCSK9, diluted to the final concentration of 2 μg/ml with Tris buffer containing 0.9 mM CaCl₂, 0.05% Tween 20 and 1% skim milk) and antibody samples (diluted with Tris buffer containing 0.9 mM CaCl₂, 0.05% Tween 20 and 1% skim milk) were added and incubated at 37° C. for 1 hour. Then the plate was washed again and horseradish peroxidase-streptavidin (Sigma, CAT#52438) was added and incubated at 37° C. for 1 hour. Then the plate was washed and tetramethylbenzidine solution was added for development. Finally, the stop solution was added and the OD450 was measured on the Microplate reader, then IC50 was calculated.

[5] = molecular target: T3, PCSK9-His6 (human, UniProt Q8NBP7 31-692, limits assumed); experiment: BIAcore, antibody captured by human Fab capture molecule on CM5 chip, PCSK9-His6 in flow
T3 construct: also called human PCSK9 with His tag; huPCSK9
Description: According to the method described in the Human Fab Capture Kit (Cat. #28-9583-25, GE), the human Fab capture molecule was covalently linked to the CM5 biochip (Cat. # BR-1000-12, GE) so that the antibodies to be tested were affinity captured. Then, human PCSK9 antigen (human PCSK9 with His tag: PCSK9-His6, SEQ ID NO: 1) flowed through the surface of the biochip, and the reaction signal was detected in real time using a Biacore instrument to obtain the association and dissociation curves. Finally, the affinity values were obtained by fitting and are shown at table 9 below. After each cycle of dissociation was finished in the experiment, the biochip was washed and regenerated with regeneration solution in Human Fab Capture kit (GE).

EC50 [1]: 0.0132 µg/mL | EC50 [2]: 0.0084 µg/mL | IC50 [3]: 0.392 µg/mL | IC50 [4]: 0.836 µg/mL
B1: Ch-001 (antibody, V domains shown)
VH: QVHLQQSGAELAKPGASVKLSCKASGYTFNDYWMHWVKERPGQGLEWIGYINPSSGFTKYHQNFKDKATLTADKSSSTAYMQLSSLTYDDSAVYYCARQYDYDEDWYFDVWGTGTTVTVSS
VL: DIVMSQSPSSLAVSAGEKVTMSCKSSQSLLNSRTRKNFLAWYQQKPGQSPKLLIYWASTRESGVPDRFTGRGSGTDFTLTISSVQAEDLAVYYCKQSFNLFTFGSGTKLEIK
notes: also called chimeric antibody

EC50 [1]: 0.0209 µg/mL | EC50 [2]: 0.0176 µg/mL | IC50 [3]: 0.514 µg/mL | IC50 [4]: 0.829 µg/mL
B2: h001-10 (antibody, human IgG1, V domains shown)
VH: QVQLVQSGAEVKKPGASVKVSCKASGYTFTDYWMHWVRQAPGQGLEWMGYINPSSGFTKYHQNFKDRVTMTRDTSISTAYMELSRLTSDDTAVYYCARQYDYDEDWYFDVWGQGTTVTVSS
VL: DIQMTQSPSSLSASVGDRVTITCKSSQSLLNSRTRKNFLAWYQQKPGKAPKLLIYWASTRESGVPDRFSGSGSGTDFTLTISSLQPEDFATYYCKQSFNLFTFGQGTKLEIK
notes: Variable regions only; also called h001_VH.1B + h001_VL.1A

Kd [5]: 0.288 nM | EC50 [1]: 0.0179 µg/mL | EC50 [2]: 0.012 µg/mL | IC50 [3]: 0.53 µg/mL | IC50 [4]: 0.76 µg/mL
B3: h001-4-WT (antibody)
heavy: not shown
light: DIVMSQSPSSLSASVGDRVTITCKSSQSLLNSRTRKNFLAWYQQKPGKSPKLLIYWASTRESGVPDRFSGSGSGTDFTLTISSLQPEDFATYYCKQSFNLFTFGQGTKLEIKRTVAAPSVFIFPPSDEQLKSGTASVVCLLNNFYPREAKVQWKVDNALQSGNSQESVTEQDSKDSTYSLSSTLTLSKADYEKHKVYACEVTHQGLSSPVTKSFNRGEC
notes: both labels are treated as one molecule; also called H001-4 IgG1 format; h001_VH.1 + h001_VL.1C

Kd [5]: 0.491 nM
B4: h001-4-YTE (antibody, human IgG1, kappa)
heavy: QVQLVQSGAEVKKPGASVKVSCKASGYTFTDYWMHWVRQAPGQGLEWMGYINPSSGFTKYHQNFKDRVTMTRDTSISTAYMELSRLRSDDTAVYYCARQYDYDEDWYFDVWGQGTTVTVSSASTKGPSVFPLAPSSKSTSGGTAALGCLVKDYFPEPVTVSWNSGALTSGVHTFPAVLQSSGLYSLSSVVTVPSSSLGTQTYICNVNHKPSNTKVDKKVEPKSCDKTHTCPPCPAPELLGGPSVFLFPPKPKDTLYITREPEVTCVVVDVSHEDPEVKFNWYVDGVEVHNAKTKPREEQYNSTYRVVSVLTVLHQDWLNGKEYKCKVSNKALPAPIEKTISKAKGQPREPQVYTLPPSRDELTKNQVSLTCLVKGFYPSDIAVEWESNGQPENNYKTTPPVLDSDGSFFLYSKLTVDKSRWQQGNVFSCSVMHEALHNHYTQKSLSLSPGK
light: B3 light
notes: human kappa light chain; also called h001-4-IgG1-YTE
